Source: the supplement of paper PMC7125110
± gives the standard error. For some of these results: This sample holds only a part of the variants without activity.

B1: glmS ribozyme (parent)
chain: AUAAAAGCGCCAGAACUACAGAAAUGUAGUUGACGAGGAGGAGGUUUAUCGAAUUUUCGGCGGAUGCCUCCAAA

What was measured:
Settings in all cases: with glucosamine-6-phosphate
glucosamine-6-phosphate [1] = variants of: B1; assay: kcat; higher = faster cleavage; RNA array
Method in brief: (§1)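 Ribozyme variants carrying barcodes were transcribed in situ on sequenced MiSeq chips by E. coli RNA polymerase and tracked at 37 °C with a hybridised Cy3 probe. They were exposed to 40 μM to 10 mM glucosamine-6-phosphate in HEPES/KCl/Mg(OAc)2 buffer. kobs came from exponential decay fits of normalised per-tile medians, and kcat and KM from weighted Michaelis–Menten fits.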

glucosamine-6-phosphate [2] = variants of: B1; assay: self-cleavage kobs at 40 uM GlcN6P; higher = faster cleavage; RNA array
Method in brief: as §1

glucosamine-6-phosphate [3] = variants of: B1; assay: self-cleavage kobs at 160 uM GlcN6P; higher = faster cleavage; RNA array
Method in brief: as §1

glucosamine-6-phosphate [4] = variants of: B1; assay: self-cleavage kobs at 640 uM GlcN6P; higher = faster cleavage; RNA array
Method in brief: as §1

glucosamine-6-phosphate [5] = variants of: B1; assay: self-cleavage kobs at 2500 uM GlcN6P; higher = faster cleavage; RNA array
Method in brief: as §1

glucosamine-6-phosphate [6] = variants of: B1; assay: self-cleavage kobs at 10000 uM GlcN6P; higher = faster cleavage; RNA array
Method in brief: as §1

glucosamine-6-phosphate [7] = variants of: B1; assay: KM; higher = weaker cofactor use; RNA array
Method in brief: as §1

| Variant | kcat (glucosamine-6-phosphate [1]) | self-cleavage kobs at 40 uM GlcN6P (glucosamine-6-phosphate [2]) | self-cleavage kobs at 160 uM GlcN6P (glucosamine-6-phosphate [3]) | self-cleavage kobs at 640 uM GlcN6P (glucosamine-6-phosphate [4]) | self-cleavage kobs at 2500 uM GlcN6P (glucosamine-6-phosphate [5]) | self-cleavage kobs at 10000 uM GlcN6P (glucosamine-6-phosphate [6]) | KM (glucosamine-6-phosphate [7]) |
| --- | --- | --- | --- | --- | --- | --- | --- |
| A12U U47G C70G | 0.000218 ± 4.7e-05 s⁻¹ | 6.36e-05 ± 1.3e-05 s⁻¹ | 7.51e-05 ± 1.5e-05 s⁻¹ | 0.000234 ± 3.9e-05 s⁻¹ | 0.000217 ± 3.7e-05 s⁻¹ | 0.000201 ± 3.3e-05 s⁻¹ | – |
| A12U U57C | 0.00174 ± 0.00086 s⁻¹ | 6.27e-05 ± 2.3e-05 s⁻¹ | 6.12e-05 ± 2.3e-05 s⁻¹ | 0.000217 ± 3.9e-05 s⁻¹ | 0.000638 ± 0.00014 s⁻¹ | 0.00126 ± 0.00038 s⁻¹ | – |
| A12U U57G | 0.000297 ± 3.7e-05 s⁻¹ | – | 4.4e-05 ± 2.1e-05 s⁻¹ | 6.1e-05 ± 1.2e-05 s⁻¹ | 0.000162 ± 2.6e-05 s⁻¹ | 0.000241 ± 3e-05 s⁻¹ | 2.26 ± 0.59 mM |
| A12U U47G U57C | 0.000776 ± 0.00016 s⁻¹ | – | – | – | 0.000172 ± 4.9e-05 s⁻¹ | 0.000417 ± 6.9e-05 s⁻¹ | 8.65 ± 3.2 mM |
| G13A U57C | 7.9e-05 ± 5.5e-06 s⁻¹ | < 1e-05 s⁻¹ | – | – | 2.88e-05 ± 9.2e-06 s⁻¹ | 5.42e-05 ± 8.5e-06 s⁻¹ | 4.54 ± 0.78 mM |
| A12C U55A | 0.0159 ± 0.0051 s⁻¹ | 0.000742 ± 8.1e-05 s⁻¹ | 0.00192 ± 0.00036 s⁻¹ | 0.00819 ± 0.0014 s⁻¹ | 0.0112 ± 0.0021 s⁻¹ | – | 0.888 ± 0.36 mM |
| A12C U55C | 0.00941 ± 0.0032 s⁻¹ | 0.000147 ± 2.6e-05 s⁻¹ | 0.000402 ± 8.8e-05 s⁻¹ | 0.00235 ± 0.00034 s⁻¹ | 0.00417 ± 0.00083 s⁻¹ | 0.00731 ± 0.0019 s⁻¹ | 2.71 ± 1.2 mM |
| A12G C71U | 0.00146 ± 0.0001 s⁻¹ | – | 5.89e-05 ± 1.1e-05 s⁻¹ | 0.000183 ± 1.9e-05 s⁻¹ | 0.000525 ± 4.6e-05 s⁻¹ | 0.00102 ± 8.1e-05 s⁻¹ | 4.37 ± 0.47 mM |
| A12C C16A | 0.00127 ± 0.00038 s⁻¹ | – | 6.12e-05 ± 1.6e-05 s⁻¹ | 0.000172 ± 2.7e-05 s⁻¹ | 0.000339 ± 5.1e-05 s⁻¹ | 0.000927 ± 9.9e-05 s⁻¹ | 4.92 ± 2.4 mM |
| G13A C67G | 2.66e-05 ± 2.6e-06 s⁻¹ | < 1e-05 s⁻¹ | – | 2.71e-05 ± 1.2e-05 s⁻¹ | 3.63e-05 ± 1.7e-05 s⁻¹ | 2.48e-05 ± 6.5e-06 s⁻¹ | – |
| A12U G43A | 0.000218 ± 2.6e-05 s⁻¹ | – | – | 4.88e-05 ± 1e-05 s⁻¹ | 0.000139 ± 1.8e-05 s⁻¹ | 0.000173 ± 2.2e-05 s⁻¹ | 2.01 ± 0.54 mM |
| A12G A42U | 4.92e-05 ± 2.6e-06 s⁻¹ | – | – | – | – | 1.63e-05 ± 6.6e-06 s⁻¹ | – |
| A12U U31G | 0.0183 ± 0.0087 s⁻¹ | 0.000567 ± 5.6e-05 s⁻¹ | 0.00142 ± 0.00026 s⁻¹ | 0.00439 ± 0.00076 s⁻¹ | 0.00841 ± 0.0023 s⁻¹ | 0.0262 ± 0.0045 s⁻¹ | – |
